Data as given in the DeepSol protein solubility set.

Test: soluble on expression in E. coli; label from the status in PepcDB or PDB records

Row | Sequence | soluble on expression in E. coli
1 | MGSDKIHHHHHHMTIRINADFSQRIVVQPGDYHWVESPMPGVQRMMLDRVGGETARATSIVRYEPFSEFSPHIHSGGEEFFVLEGVFSDEHQCYGKGSYVRNPIGSSHTPKIGKEGATIFVKLQQFDEKDTEQKVIDTQTQPWFQGLVGGLKVMPLHEFESEHVALVKWAPNTQFTAHQHWGGEEIFVLEGTFHDEHGRYPKGSWLRSPHLSRHSPFTKEEGALIYVKTGHL | not soluble
2 | MAHHHHHHMHFSLQKKNICTNSTKCVNVHPYLFPPLGMVPKRVRYDVHRGGEQHTDITNLLHTFKRFKMVKTSSYRRKSRSSPNGQGQKAKIGIKRLSAEYVKTGQLLVKQRKIIAFNLERKTRRRNFKYYPGEHVKVTKNTSLVALTNGRVKYTFHTTQNVLIVNVLPEEIDELREEDLYRYRTEHVRSLEENRSLVYLRMKHVVSFPPSKETQFRKPPLRPQFLARYDIEDNPTLREVPVLYHKPK | not soluble
3 | MSLIPIVASSPSPLISGDGDDALTATAVALATTAVHAADDLKIALIYGKTGPLEAYAKQTETGLMMGLEYATKGTMTLDGRKIVVITKDDQSKPDLSKAALAEAYQDDGADIAIGTSSSAAALADLPVAEENKKILIVEPAVADQITGEKWNRYIFRTGRNSSQDAISNAVAIGKQGVTIATLAQDYAFGRDGVAAFKEALAKTGATLATEEYVPTTTTDFTAVGQRLFDALKDKPGKKIIWVIWAGGGDPLTKLQDMDPKRYGIELSTGGNILPALAAYKRLPGMEGATYYYYDIPKNPINEWLVTEHQKRFNAPPDFFTAGGFSAAMAVVTAVQKAKSTDTEKLIAAMEGMEFDTPKGKMVFRKEDHQALQSMYHFKVKVDPAVAWAVLEPVRELKIEEMNIPIKNKGIITITTDPNSSSVDKLAAALEHHHHHH | soluble
4 | MSSGKRRNPLGLSLPPTVNEQSESGEATAEEATATVPLEEQLKKLGLTEPQTQRLSEFLQVKEGIKELSEDMLQTEGELGHGNGGVVNKCVHRKTGVIMARKLVHLEIKPSVRQQIVKELAVLHKCNSPFIVGFYGAFVDNNDISICMEYMDGLSLDIVLKKVGRLPEKFVGRISVAVVRGLTYLKDEIKILHRDVKPSNMLVNSNGEIKLCDFGVSGMLIDSMANSFVGTRSYMAPERLTGSHYTISSDIWSFGLSLVELLIGRYPVPAPSQAEYATMFNVAENEIELADSLEEPNYHPPSNPASMAIFEMLDYIVNGPPPTLPKRFFTDEVIGFVSKCLRKLPSERATLKSLTADVFFTQYADHDDQGEFAVFVKGTINLPKLNP | not soluble
5 | APFTLLYDLLHPYGFNRDQIREVATSLDNPPGASFFSSSHRLLRERDRLTVLPLSPKMEVPELFGLKIGDSFLDLPDGKQLSWQRGTPADLDLEGLRLPNTKLLLPLAFVESLQEELGVRRPQRGDHIHPYGMKGCKTVSRFFIDRHVPRSRREEAWLLCQGTEVVWIMGYAADRRFAIDELSDTEEYLLFSFGL | not soluble
6 | MQLYYLGPKGTFSYLACRQYFSEKETTFQPKSNLFEVIKAVADDDTSIGVVPIENSIEGTINIVADALAQQDVFAHGEIRLDINFALYGNGTDSISDIKKVYSIAPAISQTTNYIHQHQFDYDYVDSTIQSLTKIENGVAAIAPLGSGEAYGFTPIDTHIEDYPHNVTRFLVIKNQQQFDQNATSLMFLITPMHDKPGLLASVLNTFALFNINLSWIESRPLKTQLGMYRFFVQADSAITTDIKKVIAILETLDFKVEMIGAFNLEHHHHHH | not soluble
7 | MSVEEVSKKFEENVSVDDTTATPKTVLSDSAHFDVKHPLNTKWTLWYTKPAVDKSESWSDLLRPVTSFQTVEEFWAIIQNIPEPHELPLKSDYHVFRNDVRPEWEDEANAKGGKWSFQLCGKGADIDELWLCTLLAVIGETIDEDDSQINGVVLSIRKGGNKFALWTKCEDKEPLLRIGGKFKQVLKLTDDGHLEFFPHCSANGRHPQPSITL | soluble
8 | MGSDKIHHHHHHMLDVHKDIKKIFHEEQVLAEAAARYGFSKDQVRFLADAENYVYECMKDNQPYILKITHTIRRSSDYMMGEMEWLRHLAIGGISVAKPLPSLNGKDVEAVPDGNGGSFLLRVYEKAPGQKVDESDWNETLFYELGRYTGSMHSLTKSYKLSNPAFKRAAWAEEEQLKLRKYVPEDQIKVFQQADSLMNELRRLPKSQDNYGLVHADLHHGNFNWDHGKITAFDFDDIGYNWFVNDISILLYNVLWYPVVPYDDKAAFTEEFMTHFMKGYWEENELDPAWLMIIPDFLRLRHMLIYGLLHQMFDLNTIGEEEKEMLAGFRRDIENGTPITAFDFSALV | not soluble
9 | MTNDYQQLNYLVETDDEADIIIANLVKQLNELKEILLSLDNQDLEINQVNHRTTVHNTSSNTSNNSTSNNIADGNYNSNFFHNFSKETLQTQAKRGFLLLERCSLVGLQQLELEYLNVLGRSFESHQDKINFLVNLRDLTNDHLLDTEKIVSTLEQIFNVIGGTEYTPILNSFFNQSLNDPDPIQREIGLKQFVANLRQRFKTLLQKTNNSIQQLEAEIQIPTTHIKSDEVMFGPPDMNERLVLNDSETDAILRSIEAELESALQNKKQVVVTAVPPIAANLATDSISQETLEHNLNNTETVNTTTVTVTSASETQVRKPQISLRPIFQGNFPKRLSREDIQRYAHQLQELEQSNEG | soluble
10 | MTESSLDLGVIGNCSFGALVDRQARVVWSCLPAFDGDPAFCSLLSPKGEGGDFAVELEDFESSEQHYLPNTAVLRTVLRDSKGGEVEVIDFAPRWRNNGRFYRPVSIIRQIRPLAGNPRIVVRARPLADWGGRLEHHHHHH | not soluble
11 | MMTADAGICRPFKTKPARTIFGRFPARTVCLCASAIWTAAKSRCGWTAGVPSSLPTLPHPANAIPPNTVCSETQPSGTRKAAKPFSALPMPTAIRSKLPAAPVKRGSLFEPPSRFFGRFFVSDGRFFVSDLFCSSASGRVRAA | not soluble
12 | MGSDKIHHHHHHMDSYSDVKMGEYEPTWRSGMAKSITFIVTEDCQLRCGYCYIIGKNKFNRMSFTIARTAVDYILHNRALFWEDSVIWDFIGGEPLLEIELIDRICDYIKRRMYELDHPWFNSYRFSFSTNGLLYGTEKVQRFIRKNAHHLSISISIDGTRKKHDAQRVFPDGSGSYDAVVKNVPLWLKQFPNASTKATVAHDDLPLLKESVIHLWQLGLKNVTINLVNENIWEPGDDIIYETQLRELADYIVENDLYDTHNCSFFSKSIGKPLDCKTDNGNWCGSGKMLAIDGDGVFYPCVRFAPYSMRYKPARSIGNCFDGLDMNRVRPFLVLNRSMQSPEECIACDVASGCAWCQGNNYDLAATDTIYQRAVYTCAMHKARVRANRYFGEKLADRLGRERPVEAR | not soluble
13 | MGKNKTAYVCQECGYKSVKWLGKCPSCGEWNTLVEEFEPQSFSLVKKEPSLVLPVTDWEKEEHERETTGFESLDNALGGGLVKGQVILIAGEPGIGKSTLLLQISDRVANGKKVLYVSGEESGTQIALRAKRLGINNENLLVYPEVNLEKILQTLEKEKPSLLVLDSVQTIFSERLESSAGSVSQVREVTYRITEFCKEKNVPAFIVGQITKEGSIAGPKVLEHIVDTVLQFEGERFNFYRIVKVIKNRFGSTGEIAVFKMTDKGLEEVPEPSAFFISEKANAPGSVVFPHTEGSKPVLLEVQALVIPALYTTPQRRTQGFDPNRLALILAVLEKEAKIFTRDQDVFVNVAGGMSVKEPAADLAVAMAVVSSKKEKEVPKDFVIFGEVGLSGEIRAVHFGDLRLKEAKRFGFKKALIPKSLEIEIDGMEIYPVSHIQEAIEVLF | soluble
14 | MGSDKIHHHHHHMTNENELLYSSELQLSALNEAIEATPDNPYLYFKRATYFYNINNFRIAQNDIQKALRMDESVAAYWLLSAQINNELKNVDRAIEEGQKALQLGNAEPILYALLANCLLEKNDTISANQYIGKLTAIAPQMAELKYVQAKKLLIGKDTSHSFLKFRECIQNNPQYIEAYIDLMSLYYKKQMYDSIMPLLIKAKRMRPNNPTLFLYEGKFYETINKNQVALAAYKEGLLCDPQAIELYKPLSDYYGRQGNYKESMYYLSKWIEKNSSDAQSIIKMGNYALKQNDEAGAVTYYKNSLSIDSSNTYLKKEIERIEKHIRYVAQDTTN | not soluble
15 | MAFDKKLLDIVACPVCKGKLEYDKVAQQLICKADKLAYPITDGIPVLLENRALPLTESV | not soluble
16 | MDDPASYELDPSIAQRVKFNSAGLVPAVVQSTDGEVLMLAWMDAHALAYTIATRKGTYFSRSRNEYWIKGLTSGHTQQVTGLQLDCDGDTVLMTVVQQGGACHTGDRTCFDADVII | not soluble
17 | GPMPQLTLDKTDIKILQVLQENGRLTNVELSERVALSPSPCLRRLKQLEDAGIVRQYAALLSPESVNLGLQAFIRVSIRKAKDAREDFAASVRKWPEVLSCFALTGETDYLLQAFFTDMNAFSHFVLDTLLSHHGVQDAQSSFVLKEIKHTTSLPLNHLLKE | soluble
18 | MGSDKIHHHHHHMDITPFLNRTLDIPLYQQLYRYFKENMHRGRIQKGMKLPSKRLLANQLSISQTTVERAYEQLAAEGYIVSKPRSGWFADYHDSDFAYDRMPSTTPIQQEAEENKQWIDFHYGNVDSSYFPFSAWRKSMVNSLDQYGHELYRPGHVLGEFELRTLIAEYLYQSRGVHCGPEQVIIGAGNPILLQILCQVFEPNISIGYEDPGYPRARKIFEANRMNIVPIPVDDEGICIQKIKEQQPNLVYVTPSHQFTLGTIMTINRRIQLLKWAAENQSFIIEDDYDGEFRYTGQPVPSLQGLDQHNRVIYMGTFSKSLLPSLRISYMILPSPLLKKGHEITSLYKQTVSCHSQLTLAEFIKNGEWQKHINRMRKLYRKKRAIVLEAVQRELGEHVRIRGENSGLRILLDVYLPFGEKELIEKAKKHGVKIYPVSLSYQHHPPTKTVSLGFAGVSESDIREGIKKLKAAWKI | not soluble
19 | GMSSMQHIVELTSDLIRFPSMHSRPEQISRCAGFIMDWCAQNGIHAERMDHDGIPSVMVLPEKGRAGLLLMAHIDVVDAEDDLFVPRVENDRLYGRGANDDKYAVALGLVMFRDRLNALKAAGRSQKDMALGLLITGDEEIGGMNGAAKALPLIRADYVVALDGGNPQQVITKEKGIIDIKLTCTGKAAHGARPWMGVNAVDLLMEDYTRLKTLFAEENEDHWHRTVNLGRIRAGESTNKVPDVAEGWFNIRVTEHDDPGALIDKIRKTVSGTVSIVRTVPVFLAADSPYTERLLALSGATAGKAHGASDARYLGENGLTGVVWGAEGFNTLHSRDECLHIPSLQSIYDPLMQLAREMEEHAAV | soluble
20 | GIDPFTMAAYTIVKEEESPIAPHRLFKALVLERHQVLVKAQPHVFKSGEIIEGDGGVGTVTKITFVDGHPLTYMLHKFDEIDAANFYCKYTLFEGDVLRDNIEKVVYEVKLEAVGGGSKGKITVTYHPKPGCTVNEEEVKIGEKKAYEFYKQVEEYLAANPEVFA | soluble
21 | MGSDKIHHHHHHMSDSHQGSCLCGAVRFRTKGALRGVVYCHCSQCRKQSGHFYAATNVADADIVIEGTESITWYEASAFAGRGFCKTCGSVLFWKPRTQDYISVMAGAFDKPTGLKGDCHIFVGDKGDYYSIDDGLPQFEKSTPSIAVAE | not soluble
